Laboratory results as given in US9592281B2, “Method for inducing immunity with a peptide fragment from human CAPRIN-1” (Toray Industries, Inc., priority 2008, dated 2017).
Residues, ends and D or L forms follow the SMILES beside them.

Experiments:
[1] = system: HLA-A24+ JTK-LCL cells
Description: Chromium-51 was incorporated into the HLA-A24+ JTK-LCL cells expressing the human CAPRIN-1 polypeptide, HLA-A24+ and peptide epitope-reactive CD8+ T cells were added, culture was conducted, and the amount of chromium-51 in the culture supernatant released from the disrupted cells was measured.
(§1) The cytotoxic activity used herein means the cytotoxic activity of the CD8+ T cells against the U-87MG cells or the JTK-LCL cells (i.e., target cells) determined according to the following equation*. Cytotoxic activity (%)=amount of chromium-51 released from U-87MG or JTK-LCL cell upon addition of CD8+ T cell/amount of chromium-51 released from target cell upon addition of 1N hydrochloric acid×100 Equation*

[2] = system: U-87MG human glioma cells
Description: 10^6 cells of U-87MG human glioma cells (purchased from ATCC), which were verified to express the human CAPRIN-1 polypeptide, were collected in a 50-ml centrifuge tube, 100 μCi chromium-51 was added, and incubation was carried out at 37° C. for 2 hours. Thereafter, the cells were washed 3 times with RPMI medium (Gibco) containing 10% fetal bovine serum (hereafter referred to as “FBS,” Gibco) and added to a 96-well V-bottom plate in amounts of 10^3 cells/well. Further, 5×10^4 HLA-A0201+ and peptide epitope-reactive CD8+ T cells stimulated with the peptides suspended in RPMI medium containing 10% FBS were added, and culture was conducted at 37° C. in 5% CO2 for 4 hours. After the culture, the amount of chromium-51 in the culture supernatant released from the disrupted tumor cells was measured to determine the cytotoxic activity of the peptide-stimulated CD8+ T cells.
as §1

[3] = system: tumor of cancer-bearing dog (breast cancer); assay: Antitumor evaluation of recombinant protein in cancer-bearing dog; assay type: in vivo; conditions: dog with breast cancer; for tumor size: tumor about 86 mm^3 at administration, 100 μg with Freund's incomplete adjuvant, 3 times to regional lymph node
Description: A cancer-bearing dog (breast cancer) having a tumor on the epidermis was subjected to evaluation of the antitumor effects of the recombinant protein purified above.
The recombinant polypeptide having the amino acid sequence shown by SEQ ID NO: 6 purified in the above-described manner (100 μg, 0.5 ml) was mixed with the equivalent amount of the Freund's incomplete adjuvant (Wako Pure Chemical Industries, Ltd.) to prepare a cancer therapeutic agent. The resulting agent was administered 3 times in total to the regional lymph node in the vicinity of the tumor, as an initial-administration, and 3 days and 7 days thereafter.
Also, 100 μg of canine interleukin 12 was administered together with the agent subcutaneously.
Further, a mixture of 0.5 ml of the recombinant polypeptide having the amino acid sequence shown by SEQ ID NO: 8 and 0.5 ml of the Freund's incomplete adjuvant was administered to another dog having breast cancer 3 times in total in the same manner as described above. Also, 100 μg of canine interleukin 12 was administered together with the agent subcutaneously.

[4] = system: canine peripheral blood mononuclear cells; assay: ELISpot assay of IFNγ using peripheral blood mononuclear cells of administered dogs; assay type: cell-based, dog; conditions: 5×10^5 cells/well, restimulated with the administered polypeptide 24 hours, no spots before administration
Description: 70% ethanol was added to a 96-well plate (MultiScreen-IP, MAIPS4510, Millipore) in amounts of 100 μl/well, the plate was allowed to stand for 5 minutes, ethanol was aspirated off, the plate was washed with sterilized water, 200 mM sodium bicarbonate (pH 8.2) was added in amounts of 300 μl/well, the plate was allowed to stand for 5 minutes, sodium bicarbonate was aspirated off, and the plate was washed. Subsequently, the anti-canine interferon γ monoclonal antibody (clone142529, MAB781, R&D) added to 200 mM sodium bicarbonate was added to the plate in amounts of 0.5 μg/well, incubation was carried out at 37° C. overnight, and the primary antibody was solid-phased. After the primary antibody in the solution was aspirated off, a blocking solution (1% BSA-5% sucrose-200 mM sodium bicarbonate, pH 8.2) was added in amounts of 300 μl/well, and incubation was carried out at 4° C. overnight to block the plate. After the blocking solution was aspirated off, RPMI medium containing 10% fetal bovine serum (Invitrogen) was added in amounts of 300 μl/well, the plate was allowed to stand for 5 minutes, and the medium was aspirated off. Thereafter, canine peripheral blood mononuclear cells suspended in RPMI medium containing 10% fetal bovine serum were added to the plate in amounts of 5×10^5 cells/well, the dog-derived polypeptide or human-derived polypeptide used for administration were added thereto in amounts of 10 μl/well, and culture was conducted at 37° C. in 5% CO2 for 24 hours to produce interferon γ from immunocytes among peripheral blood mononuclear cells. After culture was conducted, the medium was removed, and wells were washed 6 times with a wash (0.1% Tween 20-200 mM sodium bicarbonate, pH 8.2). The rabbit anti-dog polyclonal antibodies diluted 1,000-fold with the blocking solution were added to the plate in amounts of 100 μl/well and then incubated at 4° C. overnight. After the wells were washed 3 times with the wash, the HRP-labeled anti-rabbit antibodies diluted 1,000-fold with the blocking solution were added to the plate in amounts of 100 μl/well, and the reaction was allowed to proceed at 37° C. for 2 hours. After the wells were washed 3 times with the wash, a color was developed with the aid of a Konica immunostain (Konica), and the wells was washed with water to terminate the reaction. After the reaction was terminated, the membrane was dried, and the number of the developed spots was counted using the KS Elispot (Carl Zeiss).

[5] = system: human breast cancer cell line, MDA-MB-231V; assay: Flow cytometry reactivity of monoclonal antibodies with breast cancer cell surface; assay type: cell-based; conditions: 10^6 MDA-MB-231V cells; control with medium instead of antibody
Description: Subsequently, monoclonal antibodies having reactivity with the surfaces of the breast cancer cells expressing CAPRIN-1 were selected from among the above monoclonal antibodies. Specifically, 10^6 cells of human breast cancer cell line, MDA-MB-231V, were centrifuged in a 1.5-ml microcentrifuge tube, 100 μl of the hybridoma supernatants prepared above was added thereto, and the resultants were allowed to stand on ice for 1 hour. After the plate was washed with PBS, the FITC-labeled goat anti-mouse IgG antibody (Invitrogen) diluted 500-fold with PBS containing 0.1% fetal bovine serum was added, and the plate was allowed to stand on ice for 1 hour. After the plate was washed with PBS, fluorescence intensity was measured using the FACSCalibur (Becton Dickinson). Separately, as a control, the same procedure was carried out except for adding a medium instead of the antibodies. […] The sequence of the heavy-chain variable region of one of such monoclonal antibodies is shown by SEQ ID NO: 78 and that of the light-chain variable region thereof is shown by SEQ ID NO: 79.

[6] = 10 days after the administration
[7] = 30 days after the administration

CSCC[C@H](NC(=O)[C@@H](NC(=O)[C@H](CCC(N)=O)NC(=O)[C@H](CS)NC(=O)[C@H](CO)NC(=O)[C@H](Cc1ccc(O)cc1)NC(=O)[C@H](CO)NC(=O)[C@@H](N)CCCNC(=N)N)C(C)C)C(=O)N[C@@H](Cc1c[nH]cn1)C(=O)N[C@@H](CCC(=O)O)C(=O)O [SEQ ID NO: 77] (H-RSYSCQVMHE-OH)
cytotoxic activity of peptide-stimulated CD8+ T cells against JTK-LCL cells [1]: did not exhibit cytotoxicity
cytotoxic activity of peptide-stimulated CD8+ T cells against U-87MG cells [2]: did not show cytotoxic activity

B1: SEQ ID NO: 8: recombinant polypeptide having the amino acid sequence shown by SEQ ID NO: 8 (canine CAPRIN-1), expressed in E. coli (protein, listed as Canis familiaris)
chain: MPSATSLSGSGSKSSGPPPPSGSSGSEAAAAAGAAGAAGAGAAAPASQHPATGTGAVQTEAMKQILGVIDKKLRNLEKKKGKLDDYQERMNKGERLNQDQLDAVSKYQEVTNNLEFAKELQRSFMALSQDIQKTIKKTARREQLMREEAEQKRLKTVLELQYVLDKLGDDEVRTDLKQGLNGVPILSEEELSLLDEFYKLADPERDMSLRLNEQYEHASIHLWDLLEGKEKSVCGTTYKALKEIVERVFQSNYFDSTHNHQNGLCEEEEAASAPTVEDQVAEAEPEPAEEYTEQSEVESTEYVNRQFMAETQFSSGEKEQVDEWTVETVEVVNSLQQQPQAASPSVPEPHSLTPVAQADPLVRRQRVQDLMAQMQGPYNFIQDSMLDFENQTLDPAIVSAQPMNPTQNMDMPQLVCPPVHSESRLAQPNQVPVQPEATQVPLVSSTSEGYTASQPLYQPSHATEQRPQKEPIDQIQATISLNTDQTTASSSLPAASQPQVFQAGTSKPLHSSGINVNAAPFQSMQTVFNMNAPVPPVNEPETLKQQNQYQASYNQSFSSQPHQVEQTDLQQEQLQTVVGTYHGSQDQPHQVTGNHQQPPQQNTGFPRSSQPYYNSRGVSRGGSRGARGLMNGYRGPANGFRGGYDGYRPSFSNTPNSGYTQSQFSAPRDYSGYQRDGYQQNFKRGSGQSGPRGAPRGRGGPPRPNRGMPQMNTQQVN
tumor completely regressed, time after the initial administration ([3]; with Freund's incomplete adjuvant, 3 times, plus 100 μg canine interleukin 12 subcutaneously, tumor at administration about 123 mm^3 (SEQ ID NO: 2), about 96 mm^3 (SEQ ID NO: 8)): 27 days
number of IFNγ spots detected in peripheral blood mononuclear cells [4, 6]: 32 spots
number of IFNγ spots detected in peripheral blood mononuclear cells [4, 7]: 117 spots

B2: SEQ ID NO: 6: recombinant polypeptide having the amino acid sequence shown by SEQ ID NO: 6 (canine CAPRIN-1), expressed in E. coli (protein, listed as Canis familiaris)
chain: MALSQDIQKTIKKTARREQLMREEAEQKRLKTVLELQYVLDKLGDDEVRTDLKQGLNGVPILSEEELSLLDEFYKLADPERDMSLRLNEQYEHASIHLWDLLEGKEKSVCGTTYKALKEIVERVFQSNYFDSTHNHQNGLCEEEEAASAPTVEDQVAEAEPEPAEEYTEQSEVESTEYVNRQFMAETQFSSGEKEQVDEWTVETVEVVNSLQQQPQAASPSVPEPHSLTPVAQADPLVRRQRVQDLMAQMQGPYNFIQDSMLDFENQTLDPAIVSAQPMNPTQNMDMPQLVCPPVHSESRLAQPNQVPVQPEATQVPLVSSTSEGYTASQPLYQPSHATEQRPQKEPIDQIQATISLNTDQTTASSSLPAASQPQVFQAGTSKPLHSSGINVNAAPFQSMQTVFNMNAPVPPVNEPETLKQQNQYQASYNQSFSSQPHQVEQTEGCRK
tumor size ([3]; 10 days after the initial administration): 55 mm^3
tumor size ([3]; 20 days after the initial administration): 30 mm^3
tumor size ([3]; 30 days after the initial administration): 20 mm^3
number of IFNγ spots detected in peripheral blood mononuclear cells [4, 6]: 13 spots
number of IFNγ spots detected in peripheral blood mononuclear cells [4, 7]: 82 spots

B3: monoclonal antibody against CAPRIN-1 having the heavy-chain variable region of SEQ ID NO: 78 and the light-chain variable region of SEQ ID NO: 79: mouse monoclonal antibody against human CAPRIN-1 … (antibody, listed as Mus musculus, V domains shown)
VH: PRASLGVSETLLCTSGFTFTDYYMSWVRQPPGKALEWLGFIRNKANGYTTEYSASVKGRFTISRDNSQSILYLQMNTLRAEDSATYYCARANWAFDYWGQGTTVTVSSK
VL: SGDRVSLSCRASQSISNYLHWYQQKSHESPRLLIKYASQSISGIPSRFSGSGSGTDFTLSINSVETEDFGMYFCQQSNSWPYTFGGGTKLEIKQ
notes: mouse monoclonal antibody against human CAPRIN-1 reacting with breast cancer cell surfaces
reactivity with breast cancer cell surface (fluorescence intensity, FACS) [5]: reacts with the cancer cell surface
